Results published in the supplement of paper PMC12764529.
± gives the half width of the 95% confidence interval.

experiment: folding stability dG unfold from chymotrypsin proteolysis; higher = more stable
Method in brief: (§1)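 How resistant each design was to proteolysis was captured as K50, inferred by Bayesian fitting of sequencing counts. Unfolding free energy was then derived relative to a sequence-predicted unfolded-state K50 and a shared folded-state K50, per protease or combined. Digestion used trypsin and chymotrypsin at 11 threefold-diluted concentrations plus a no-protease condition, on mini-proteins under 80 residues without cysteine in a PA-tagged cDNA display construct. Designs were kept only when AlphaFold2 dimer inter-PAE was above 15.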

Sequence | folding stability dG unfold
SAGGSAGGSAKKTLTVKPGQTVTVKNKKTGKTYTATVEKDKDGNLTVKLENGKTYTINLKDLSAGGSAGGSA [r18_169_TrROS_Hall] | 2.15 ± 0.078 kcal/mol
SMPTLKITIEKKLPNGEKKKIEIEISLEELLKEARKKKGLESEEEAREALAKELAEKLKEEGYKVKIEPVSA [r9_868_TrROS_Hall] | 0.209 ± 0.42 kcal/mol
SAGSMLSVEEVEVTYNNPETGTPATIKLTVPVFYDPVTGRVEVEVEVEPSPEVPEEVAKEIAEKVKEKRSAG [r14_152_JUSTAS] | 0.494 ± 0.066 kcal/mol
SAGGSAGGSASVEEIADKIQQLHGVDVEVTEPQPNSNGYPRWRIKVDLKGLPEKWMQELLNSAGGSAGGSAG [r3_40_TrROS] | 0.217 ± 0.19 kcal/mol
SAGGSAGGSKKPIPVKVIETKPDPEIGGITTVELEFPDGSKATFTSIEDIEKIPDIEVEIKLGSAGGSAGGS [r20_192_TrMRF] | 0.639 ± 0.043 kcal/mol
SAGGLPPEIKVEISFTPDPATGKWRGTVTAFDPVTGKTVTVPVTSDTPEELRARLEAAAAAVAAALASAGGS [r8_480_JUSTAS] | 4.36 ± 0.12 kcal/mol
SAGGEKVKLRIYVYRRTVERDPATGELRERYELVEEIEIEVEPGETLEDILAKLKLPPGWRIVRVERESAGG [r13_716_TrROS_Hall] | 5.424 ± 0.053 kcal/mol
SAGGSAGGSAGMEPEIYTITTTDSNGNTSSYTFTSTEEVNAFLNDPSFQSSAVSFTVSPTSAGGSAGGSAGG [r11_1047_JUSTAS] | 2.88 ± 0.047 kcal/mol
SAMEIEKIEIEKEEVNGKLYYRIRVKIINKETGKEIELELEFKSLEDALEALKKLPNITRVEITEIEPVSAG [r14_464_TrROS_Hall] | 5.18 ± 0.091 kcal/mol
SAGGSAGGSAGGKVITVELPDDVTVTFFIPEDPDIVPVEVTPPDGSTLTLPAKDIRELLGSAGGSAGGSAGG [r7_769_TrMRF] | 0.49 ± 0.12 kcal/mol
SAGGSAGGSMTIDGNALYEELGKDLPDEEKRKLFEEKAEEIAKKLGIPNMKVNINIKKPNEIKSAGGSAGGS [r12_666_JUSTAS] | 0.135 ± 0.051 kcal/mol
SAGGSAGGRVRIHYNPEDGYIMITFPRNNPEEIAKEILEAFNIKDVNIQVDPEEGWVSIMIKIDSAGGSAGG [r6_662_TrROS] | 1.26 ± 0.1 kcal/mol
SAMKITDVTVERNPDNGWYEVMVTFEFDNGPVTVKIWMPRDGNMPIDVYDMGNGEPKGEIWIPADQIKFSAG [r14_608_TrROS] | 1.35 ± 0.1 kcal/mol
SAGGMKVIELTVDEIKELADKLKENKNLKATIYVNGKKVELEFDTVEDALKALKVKPGDTVLIEIEPSAGGS [r16_377_TrROS_Hall] | 3.88 ± 0.07 kcal/mol
SAGGSAGGSADEIPIMIKIKYKNGGKKREHTITFRVEPNMPNLDEFAKELANNGRIEEVEISAGGSAGGSAG [r3_30_TrROS] | -0.282 ± 0.59 kcal/mol
SAGGSAGGMEPLTRVTVELELPGGETRVVEGDDLEAVKERLKEELGLPDLVVKSVKTTPLPALESAGGSAGG [r6_406_JUSTAS] | 0.974 ± 0.027 kcal/mol
SAGGSAGGSAKENEKISIGPEITETGLDILEIKVDTNTKVVTIRFANKIYRIDKNGNISIVSSAGGSAGGSA [r18_445_TrMRF] | 2.51 ± 0.13 kcal/mol

experiment: folding stability dG unfold from trypsin proteolysis; higher = more stable
Method in brief: as §1

Sequence | folding stability dG unfold
SAGGSAGGSAKKTLTVKPGQTVTVKNKKTGKTYTATVEKDKDGNLTVKLENGKTYTINLKDLSAGGSAGGSA [r18_169_TrROS_Hall] | 0.967 ± 0.083 kcal/mol
SMPTLKITIEKKLPNGEKKKIEIEISLEELLKEARKKKGLESEEEAREALAKELAEKLKEEGYKVKIEPVSA [r9_868_TrROS_Hall] | 0.855 ± 0.17 kcal/mol
SAGSMLSVEEVEVTYNNPETGTPATIKLTVPVFYDPVTGRVEVEVEVEPSPEVPEEVAKEIAEKVKEKRSAG [r14_152_JUSTAS] | -1.26 ± 0.95 kcal/mol
SAGGSAGGSASVEEIADKIQQLHGVDVEVTEPQPNSNGYPRWRIKVDLKGLPEKWMQELLNSAGGSAGGSAG [r3_40_TrROS] | 0.681 ± 0.17 kcal/mol
SAGGSAGGSKKPIPVKVIETKPDPEIGGITTVELEFPDGSKATFTSIEDIEKIPDIEVEIKLGSAGGSAGGS [r20_192_TrMRF] | 0.591 ± 0.027 kcal/mol
SAGGLPPEIKVEISFTPDPATGKWRGTVTAFDPVTGKTVTVPVTSDTPEELRARLEAAAAAVAAALASAGGS [r8_480_JUSTAS] | 3.03 ± 0.098 kcal/mol
SAGGEKVKLRIYVYRRTVERDPATGELRERYELVEEIEIEVEPGETLEDILAKLKLPPGWRIVRVERESAGG [r13_716_TrROS_Hall] | 4.39 ± 0.091 kcal/mol
SAGGSAGGSAGMEPEIYTITTTDSNGNTSSYTFTSTEEVNAFLNDPSFQSSAVSFTVSPTSAGGSAGGSAGG [r11_1047_JUSTAS] | 2.57 ± 0.053 kcal/mol
SAMEIEKIEIEKEEVNGKLYYRIRVKIINKETGKEIELELEFKSLEDALEALKKLPNITRVEITEIEPVSAG [r14_464_TrROS_Hall] | 3.55 ± 0.11 kcal/mol
SAGGSAGGSAGGKVITVELPDDVTVTFFIPEDPDIVPVEVTPPDGSTLTLPAKDIRELLGSAGGSAGGSAGG [r7_769_TrMRF] | 0.159 ± 0.049 kcal/mol
SAGGSAGGSMTIDGNALYEELGKDLPDEEKRKLFEEKAEEIAKKLGIPNMKVNINIKKPNEIKSAGGSAGGS [r12_666_JUSTAS] | -0.213 ± 0.093 kcal/mol
SAGGSAGGRVRIHYNPEDGYIMITFPRNNPEEIAKEILEAFNIKDVNIQVDPEEGWVSIMIKIDSAGGSAGG [r6_662_TrROS] | 2.95 ± 0.25 kcal/mol
SAMKITDVTVERNPDNGWYEVMVTFEFDNGPVTVKIWMPRDGNMPIDVYDMGNGEPKGEIWIPADQIKFSAG [r14_608_TrROS] | 0.893 ± 0.022 kcal/mol
SAGGMKVIELTVDEIKELADKLKENKNLKATIYVNGKKVELEFDTVEDALKALKVKPGDTVLIEIEPSAGGS [r16_377_TrROS_Hall] | 2.6 ± 0.051 kcal/mol
SAGGSAGGSADEIPIMIKIKYKNGGKKREHTITFRVEPNMPNLDEFAKELANNGRIEEVEISAGGSAGGSAG [r3_30_TrROS] | 0.629 ± 0.14 kcal/mol
SAGGSAGGMEPLTRVTVELELPGGETRVVEGDDLEAVKERLKEELGLPDLVVKSVKTTPLPALESAGGSAGG [r6_406_JUSTAS] | 0.6 ± 0.045 kcal/mol
SAGGSAGGSAKENEKISIGPEITETGLDILEIKVDTNTKVVTIRFANKIYRIDKNGNISIVSSAGGSAGGSA [r18_445_TrMRF] | 1.73 ± 0.065 kcal/mol

experiment: folding stability dG unfold (combined trypsin and chymotrypsin); higher = more stable
Method in brief: as §1

Sequence | folding stability dG unfold
SAGGSAGGSAKKTLTVKPGQTVTVKNKKTGKTYTATVEKDKDGNLTVKLENGKTYTINLKDLSAGGSAGGSA [r18_169_TrROS_Hall] | 1.8 ± 0.093 kcal/mol
SMPTLKITIEKKLPNGEKKKIEIEISLEELLKEARKKKGLESEEEAREALAKELAEKLKEEGYKVKIEPVSA [r9_868_TrROS_Hall] | 0.525 ± 0.32 kcal/mol
SAGSMLSVEEVEVTYNNPETGTPATIKLTVPVFYDPVTGRVEVEVEVEPSPEVPEEVAKEIAEKVKEKRSAG [r14_152_JUSTAS] | -0.0138 ± 0.35 kcal/mol
SAGGSAGGSASVEEIADKIQQLHGVDVEVTEPQPNSNGYPRWRIKVDLKGLPEKWMQELLNSAGGSAGGSAG [r3_40_TrROS] | 0.372 ± 0.11 kcal/mol
SAGGSAGGSKKPIPVKVIETKPDPEIGGITTVELEFPDGSKATFTSIEDIEKIPDIEVEIKLGSAGGSAGGS [r20_192_TrMRF] | 0.648 ± 0.056 kcal/mol
SAGGLPPEIKVEISFTPDPATGKWRGTVTAFDPVTGKTVTVPVTSDTPEELRARLEAAAAAVAAALASAGGS [r8_480_JUSTAS] | 4.08 ± 0.14 kcal/mol
SAGGEKVKLRIYVYRRTVERDPATGELRERYELVEEIEIEVEPGETLEDILAKLKLPPGWRIVRVERESAGG [r13_716_TrROS_Hall] | 5.24 ± 0.076 kcal/mol
SAGGSAGGSAGMEPEIYTITTTDSNGNTSSYTFTSTEEVNAFLNDPSFQSSAVSFTVSPTSAGGSAGGSAGG [r11_1047_JUSTAS] | 2.76 ± 0.076 kcal/mol
SAMEIEKIEIEKEEVNGKLYYRIRVKIINKETGKEIELELEFKSLEDALEALKKLPNITRVEITEIEPVSAG [r14_464_TrROS_Hall] | 4.93 ± 0.093 kcal/mol
SAGGSAGGSAGGKVITVELPDDVTVTFFIPEDPDIVPVEVTPPDGSTLTLPAKDIRELLGSAGGSAGGSAGG [r7_769_TrMRF] | 0.364 ± 0.1 kcal/mol
SAGGSAGGSMTIDGNALYEELGKDLPDEEKRKLFEEKAEEIAKKLGIPNMKVNINIKKPNEIKSAGGSAGGS [r12_666_JUSTAS] | 0.0998 ± 0.078 kcal/mol
SAGGSAGGRVRIHYNPEDGYIMITFPRNNPEEIAKEILEAFNIKDVNIQVDPEEGWVSIMIKIDSAGGSAGG [r6_662_TrROS] | 2.17 ± 0.41 kcal/mol
SAMKITDVTVERNPDNGWYEVMVTFEFDNGPVTVKIWMPRDGNMPIDVYDMGNGEPKGEIWIPADQIKFSAG [r14_608_TrROS] | 1.15 ± 0.075 kcal/mol
SAGGMKVIELTVDEIKELADKLKENKNLKATIYVNGKKVELEFDTVEDALKALKVKPGDTVLIEIEPSAGGS [r16_377_TrROS_Hall] | 3.48 ± 0.068 kcal/mol
SAGGSAGGSADEIPIMIKIKYKNGGKKREHTITFRVEPNMPNLDEFAKELANNGRIEEVEISAGGSAGGSAG [r3_30_TrROS] | 0.28 ± 0.25 kcal/mol
SAGGSAGGMEPLTRVTVELELPGGETRVVEGDDLEAVKERLKEELGLPDLVVKSVKTTPLPALESAGGSAGG [r6_406_JUSTAS] | 0.857 ± 0.077 kcal/mol
SAGGSAGGSAKENEKISIGPEITETGLDILEIKVDTNTKVVTIRFANKIYRIDKNGNISIVSSAGGSAGGSA [r18_445_TrMRF] | 2.18 ± 0.17 kcal/mol
